# Experiment: soluble on expression in E. coli; label from the status in PepcDB or PDB records
row,Sequence,soluble on expression in E. coli
1,MRLSDYNTPLSGMLAAQMGLQTTKQNLSNIHTPGYVRQMVNYESAGGSKGYAPEQRIGYGVQTLGVDRITDEVKTKQYNDQMSQFSYYAYMNSTLSRVESMVGTTGKNSLSSLMDGFFNAFREVAKNPEQSNYYDTLIAETGKFTSQVSRLAKNLDTVEAQTTEDIEAHVNEFNRLAASLAEANKKIGQAGTQVPNQLLDERDRIMTEMSKYADIEVSYEATNPNIASVRMNGVLTVNGQDTYPLQLQKDKKPMSVQISGTDIPLSGGTILSAIDTKAKITNYKDNLNEFVNSLKKQVNNTMKKELFVGEDAKKLELNPDFIKDISKMKISAETANNLAAITDKGYKDGLTYKQALDQFLVGVASDKSSVNAYQNIHKDLLEGIQQEKMSIEGVNMEEEMVNLMAFQKYFVANSKAITTMNEVFDSLFSIIR,not soluble
2,MRLTDQKRESIVQAAIAEFGDRGFEITSMDRIAARAEVSKRTVYNHFPSKEELFAEMLQRLWNCAPPQSEVVYRPLVSLREQLLELLWGKMRNLTDSSFLDLARVVVGATIHSPERAQVWLARINEREETFSAWIRAAQKDGRLKPVDPGFAATQMHALLKSFAFWPQVTFNAALLTPQEQSNVVESALNMFLGWYEIPG,soluble
3,MRLVIHGKNIDITDGIRSYLNQKIERATSHFQNVINEVDVHLSVARNRSTAPKQTAEVTVFVNGSVIRAEESSENLYASIDLVADKIARKLRKLKEKRQDKSRAKDTNSVVEPEVVTDLVGDRTPQLPEQVVRMKYFAMPPMTIQEALEHLEMVDHDFYVFRNRDTGEINVVYERNHGGYGVIQPRPTSNNHHHNTADAAAKATAKAGPLEHHHHHH,soluble
4,MRMAAMHSGGKTIQLNAGHYQAKIVTVGAGLAELTHHGRHVVIPHKPEEIPMAHLGKVLIPWPNRVTNGCYSYNGKVFQLAVNDPVSQTAIHGLLAWRDWQINYQSATEASLTIFLPPSYGYPFALISEVIYRLDAASGLHVLIRTQNIGDESAPYGAGAHPYLTCNLQSIDSCVLTLPASEELPAGRDFSASCLLGETRLDHAVKTATTPAEWEVRLTSPTQNMSTFLRSTQPWLQIYTGEKLSRKGLAVEPMSCPPDAFNSGIALIHLAPKAIHQLHFSIGCD,not soluble
5,MRMIFVNLPVKNIEVSKSFFTALGFSFNPEYSDDRTLCMIVEENIFVMLLQEDRFRDFINGDIADAKQSTEVLTCLSAGSREEIDEMIATALASGGSSWKPVQDHGFMYAGSFQDPDGHVWELVHMTGQG,soluble
6,MRMKPYSELTREELLELKKDLSAQYHAFQGKDLKLDMSRGKPSVEQLDLSMGMMDVLNSDCDLTCEDGTDCRNYGVLDGIREAKELLGDMIEVPADNIIIYGNSSLNVMYDTISRSMTHGVMGNTPWCKLDKVKFLCPVPGYDRHFAITEYFGIEMVNVPMTEEGPDMDIVEELVSKDESIKGIWCVPKYSNPTGNSYSDQTVRRFARLKPAAADFRIYWDNAYSVHHLYDDDQDNLIEILAECKRAGNPDLAYKFSSTSKISFPGSGIAAVATSHNNLEDIKKQLRMQTIGHDKVNQLRHVRYFKNIHGMVEHMRKHAEILRPKFEAVEAILERELGGLGIGSWTSPKGGYFISFDSMDGCAKDIVAKCKKAGVVMTGAGATYPYGKDPHDSNIRIAPSYPPLQDLITATELFALCVKIVTVNKLLGATK,not soluble
7,MRMTINRYNFQALWNRMCMILTSKGGELKFGEIIPDTKRSEMKIGKTLYIVNSRYNGKENIIDKFKRLITRKLESQSKGN,not soluble
8,MRNFKKSDKLNNVSYDVRGPVLEEAERMQEEGIRILKLNTGNPAPFGFDAPNEIVRDMIVNVRDSEGYSDSKGIFSARKAIEQYCQLKKFPNVTINDIYTGNGVSELITMCMQGLLNNGDEVLVPMPDYPLWTASVSLAGGTPVHYICDEQAEWYPDIDDIKSKITSNTKAIVIINPNNPTGALYPKELLLEIVEVARQNDLIIYSDEIYDRLVMDGLVHVPIATLAPDLFVVTLNGLSKSHRVAGFRCGWMVLSGDKSRVKGYIEGLNMLASMRLCSNVLSQQIIQTALGGYQSVDGLLLPGGRIYEQREFIYNAINDIPGLSAVKPKAAFYIFPKIDTAKFDIYDDEKFVLDFLHKHHILLVHGGGFNWQQPDHFRIVYLPKMEDLKTTADKMREFLSTYKQK,not soluble

# — the DeepSol protein solubility set
